Experimental data reported in patent US20040170619, “Gene regulation” (published 2004).

B1: EPO B-A target site (dsDNA)
DNA 1: TCTGGGGTGGGGGCTGGG
DNA 2: CCCAGCCCCCACCCCAGA
B2: TNFR1-4-2 target site (dsDNA)
DNA 1: GTCGGATTGGTGGGTTGGGGGCACAAGGCA
DNA 2: TGCCTTGTGCCCCCAACCCACCAATCCGAC

Key:
[1] = target: EPOb-a-VP64 six-zinc-finger activator (synthetic construct); assay: ELONA; binds tightly and specifically; 50 uM ZnCl2, PBS pH 7.0, salmon sperm competitor DNA; values only in figure; conditions: tags: SV40 NLS, VP64, c-myc 9E10, C-terminal HA for ELISA; label: biotin
Procedure: (§1) DNA binding reactions contain the appropriate zinc finger peptide, biotinylated binding site (10 nM) and 5 μg competitor DNA (sonicated salmon sperm DNA), in a total volume of 50 μl, which contained: 1×PBS (pH 7.0), 1.25×10⁻³ U high affinity anti-HA-Peroxidase antibody (Boehringer Mannheim), 50 μM ZnCl₂, 0.01 mg/ml BSA, and 0.5% Tween 20. Incubations are performed at room temperature for 40 minutes. Black streptavidin-coated wells are blocked with 4% marvel for 1 hour. Binding reactions are added to the streptavidin-coated wells and incubated for a further 40 minutes at room temperature. Wells are washed 5 times in 100 μl wash buffer (1×PBS (pH 7.0), 50 µM ZnCl₂, 0.01 mg/ml BSA, and 0.5% Tween 20), and finally 50 μl QuantaBlu peroxidase substrate solution (Pierce) is added to detect bound HA-tagged zinc finger peptide. ELISA signals are read in a SPECTRAmax GeminiXS spectrophotometer (Molecular Devices) and analysed using SOFTmax Pro 3.1.2 (Molecular Devices).

[2] = target: TNFR1-4-2 six-zinc-finger DNA-binding domain (synthetic construct); assay: ELONA; high affinity and specificity; 50 uM ZnCl2, PBS pH 7.0, 10 nM site, salmon sperm competitor DNA, room temperature; conditions: may carry C-terminal NLS-KOX1-c-myc in the ELISA construct; label: biotin
Sequence of TNFR1-4-2 six-zinc-finger DNA-binding domain (synthetic construct) (chain, as listed by the source): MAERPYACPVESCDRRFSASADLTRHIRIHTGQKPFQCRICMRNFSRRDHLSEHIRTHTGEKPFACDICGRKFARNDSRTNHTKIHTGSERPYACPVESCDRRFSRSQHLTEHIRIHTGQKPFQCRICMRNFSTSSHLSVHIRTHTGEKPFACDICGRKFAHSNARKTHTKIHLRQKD
Procedure: as §1

Row | Binder | binding result [1] | binding result [2]
1 | B1 | binds | 
2 | B2 |  | binds
